Measurements published in US10407473B2, “Methods for treating disorders that involve immunoglobulin A” (UNIVERSITY OF MANITOBA, priority 2011, dated 2019).

How the values were obtained:
[1] = system: mouse B cells stimulated to produce IgA; assay: IgA production by cultured, stimulated mouse splenic B cells (ELISA of supernatants, flow cytometry); assay type: cell-based; settings: FIG. 8, C57BL6 spleen B cells cultured 5 days with stimuli and a percentage of supernatant, vs Control SN
Excerpt: A polypeptide of the present invention having immunoregulatory activity inhibits IgA production by B cells in vitro. Whether a polypeptide has immuno-modulatory activity may be determined by in vitro assays. An example of an in vitro assay is described in Example 1. The assay uses B cells, which in one embodiment may be a primary cell obtained from an animal, such as a mouse or human, or in another embodiment may be a B cell line. When obtained from an animal, B cells may be obtained from lymphoid tissues such as spleen, tonsil, and lymph node. […]
Single cell suspensions were generated from the indicated tissues and were pre-incubated with hybridoma supernatant containing Fc receptor blocking antibody. […] Data were analyzed using FlowJo software (TreeStar).
Serum, saliva and bronchoalveolar lavage fluid were collected from 10-14 week old FDC-SP-deficient mice, FDC-SP transgenic mice and strain, age and sex-matched controls. […] Total antibodies levels were determined by coating with anti-mouse IgM or IgA (Jackson ImmunoResearch Laboratories) and NP-specific antibodies levels were determined by coating plates with NP20-BSA (Biosearch Technologies). […]

[2] = system: B lymphoma cells; settings: secreted FDC-SP; cited from earlier work
[3] = system: T lymphoma cells; settings: secreted FDC-SP; cited from earlier work
[4] = Toxicity observation in FDC-SP transgenic mice; assay type: in vivo; settings: transgenic mice expressing increased levels of FDC-SP polypeptide
Excerpt: FDC-SP transgenic CD1 mice (i.e., mice constitutively expressing FDC-SP in lymphoid tissues) were generated as described (Al-Alwan et al., 2007, J. Immunol., 178:7859-7867). All experimental animals were housed at the Central Animal Care Facility (University of Manitoba, Winnipeg, MB) in compliance with the guidelines established by the Canadian Council on Animal Care.

Molecule	IgA production in vitro [1]	binding to the surface of B lymphoma cells [2]	binding to the surface of T lymphoma cells [3]	toxicity associated with the polypeptide [4]
FDC-SP SN: supernatant of L cells transfected with FDC-SP expression vector, containing recombinant FDC-SP (protein, UniProt Q8NFU4 18-85, looked up, in L cell culture supernatant) Follicular dendritic cell …: FPVSQDQEREKRSISDSDELASGFFVFPYPYPFRPLPPIPFPRFPWFRRNFPIPIPESAPTTPLPSEK	suppressed	–	–	–
FDC-SP: secreted immuno-modulatory polypeptide expressed by activated follicular dendritic cells (protein, UniProt Q8NFU4 18-85, looked up) Follicular dendritic cell …: FPVSQDQEREKRSISDSDELASGFFVFPYPYPFRPLPPIPFPRFPWFRRNFPIPIPESAPTTPLPSEK	–	can bind	not	no evidence of toxicity
